The text below walks through data of PMC7305169, “High flavivirus structural plasticity demonstrated by a non-spherical morphological variant” (Nature Communications, 2020).

This experiment addresses T1, ZIKV envelope (E) protein, strain H/PF/2013, on purified virus particles (Zika virus (ZIKV-H/PF/2013)).
T1 construct: envelope (E) protein of Zika virus strain H/PF/2013, cut product of the viral polyprotein, membrane-anchored on the virus particle; the entire E protein with its transmembrane regions was fitted; Stood on whole virus particles (catSP after 37 °C with Fab C10) together with the M protein and the lipid membrane
The experiment is described as follows: cryoEM micrographs and 2D averages; Fab mixed with purified virus at a molar ratio of 1.5 Fab to E protein; Fab added before exposure to 37 °C (DENV3-CH53489, ZIKV) or after the virus was incubated at 37 °C (DENV3-CH53489); binding seen as spiky surface and Fab density in 2D averages. The settings on record: both partners purified.

B1: Fab C10 (Fab, V domains shown)
VH: EVQLVESGAEVKKPGASVKVSCKASGYTFTSYAMHWVRQAPGQRLEWMGWINAGNGNTKYSQKFQDRVTITRDTSASTAYMELSSLRSEDTAIYYCARDKVDDYGDYWFPTLWYFDYWGQGTLVTVS
VL: ALTQPASVSGSPGQSITISCTGTSSDVGGFNYVSWFQQHPGKAPKLMLYDVTSRPSGVSSRFSGSKSGNTASLTISGLQAEDEADYYCSSHTSRGTWVFGGGTKLTVL
notes: Only the variable regions of the Fab were fitted into the maps; also called antibody C10; Fab fragment of antibody C10; source: monoclonal antibody C10 obtained from Gavin Screaton; Fab made from IgG with papain conjugated resins, purified (anion-exchange, gel filtration)
Regarding B1, the binding result was “binds”.
